Residue numbers refer to the chain shown, from its start. “Also recorded” adds a separate entry of the source. One block for each molecule: values may come before it. Ends that are not written are not given here.
Legend:
[1] = Water solubility of the peptides; assay type: physicochemical
[2] = molecular target: T1, TF/heparanase complex (Homo sapiens, UniProt P13726+Q9Y251, DEL111-157/INS109GSGSG); test: Inhibition of heparanase procoagulant activity in the factor Xa generation assay; assay type: biochemical; settings: for procoagulant effect of heparanase on Xa level: co-addition of peptide with heparanase, FIG. 23A; for procoagulant effect induced by heparanase (Xa level): peptide 25 μg/ml (15 μM), heparanase 1.5 μM, FIG. 26
T1 construct: comprised of the 8 kDa and 50 kDa heparanase heterodimer (8+50); purchased American Diagnostica (Stanford, Conn., USA) for TF and factor VIIa; host or cells: heparanase GS3 made in house: conditioned medium of baculovirus-infected cells
Experimental: FIG. 23A. Factor Xa levels was evaluated by chromogenic substrate in an in-vitro assay including purified proteins of tissue factor (TF), factor VIIa, factor X and assay buffer.
FIG. 26. Factor Xa levels was evaluated by chromogenic substrate in an in-vitro assay including lipidated TF (0.004 μM), factor VIIa (0.04 μM) and factor X (1.4 μM). The Xa level was studied by a chromogenic substrate (1 mM).
(§1) Following preliminary experiments to quantify the appropriate protein doses, we performed a basic experiment of factor Xa generation in the following manner: the concentrations mentioned are the final concentrations. Lipidated recombinant human TF (0.004 μM, […]), recombinant human factor VIIa (0.04 μM) and plasma-derived human factor X (1.4 μM) were incubated in 50 μL assay buffer (0.06 M Tris, 0.04 M NaCl, 2 mM CaCl 2, 0.04% bovine serum albumin, pH 8.4) to a total volume of 125 μL in a 96-well sterile plate. After 15 min at 37° C., chromogenic substrate for factor Xa was added (1 mM). After 20 min, the reaction was stopped with 50 μL of glacial acetic acid and the level of factor Xa generation was determined using an enzyme-linked immunosorbent assay (ELISA) plate reader (Power Wave XS, BIO-TEK, VT, USA). In order to visualize the increased production of factor Xa by western blotting, the experiment was repeated with 7 μM factor X. After 15 min at 37° C., half of the reaction volume was subjected to blotting using monoclonal anti-human factor X/Xa heavy chain antibody.
The coagulation assay included the peptides and the following components: lipidated TF (0.004 μM), factor VIIa (0.04 μM) and factor X (1.4 μM). The Xa level was studied by a chromogenic substrate (1 mM).

[3] = molecular target: T2, TF/heparanase complex (Homo sapiens, UniProt Q9Y251); test: TF/heparanase inhibitory peptides in heparanase-injected ICR mice (TAT by ELISA); assay type: in vivo; settings: peptide intra-peritoneal half an hour after heparanase, blood after 4 hours
T2 construct: endogenous in cells; host or cells: ICR mice in vivo (TF endogenous)
T2 sequence (Q9Y251 36-543): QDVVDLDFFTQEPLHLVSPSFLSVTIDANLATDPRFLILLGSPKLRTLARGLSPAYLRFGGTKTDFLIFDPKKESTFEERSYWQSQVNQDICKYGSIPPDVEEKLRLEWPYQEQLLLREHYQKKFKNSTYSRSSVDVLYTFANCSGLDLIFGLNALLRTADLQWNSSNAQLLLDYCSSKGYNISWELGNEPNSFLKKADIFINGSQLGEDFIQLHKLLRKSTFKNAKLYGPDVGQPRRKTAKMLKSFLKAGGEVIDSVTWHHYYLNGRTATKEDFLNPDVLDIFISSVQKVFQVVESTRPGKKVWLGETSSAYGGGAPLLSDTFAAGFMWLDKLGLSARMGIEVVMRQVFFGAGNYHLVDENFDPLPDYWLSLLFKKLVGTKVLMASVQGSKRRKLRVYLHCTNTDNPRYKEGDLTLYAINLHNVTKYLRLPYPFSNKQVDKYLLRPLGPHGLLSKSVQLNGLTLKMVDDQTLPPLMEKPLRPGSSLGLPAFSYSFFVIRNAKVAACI
Experimental: FIG. 23B. Heparanase was injected intra-peritoneal to ICR mice. Inhibitory peptides to TF/heparanase complex (number 5, 6, 21) were injected intra-peritoneal half an hour after heparanase. Four hours later the blood was drawn and Thrombin-antithrombin (TAT) level was measured by ELISA.
Methods: ICR mice, heparanase knock-out mice and heparanase over-expression mice were studied. Sepsis was induced by intra-peritoneal injection of lipopolysaccharides (LPS). Inhibitory peptides to TF/heparanase complex (number 11, 22, 5, 6, 7, 12, and 21 [SEQ IDs: 1-7]) were injected intra-peritoneal half an hour after heparanase or LPS. After 4 hours blood was obtained via sub-mandibular plexus puncture followed by mice sacrificing. Levels of thrombin-antithrombin (TAT), D-Dimer and IL-6 were tested using ELISA. Western blot to plasma factor VII and immunostaining of fibrinogen in lung, kidney and spleen were performed.

[4] = molecular target: T1, TF/heparanase complex; test: Inhibition of heparanase procoagulant activity in the thrombin generation assay; assay type: biochemical; settings: for heparanase procoagulant activity (thrombin generation): inhibitor added to the thrombin generation assay with heparanase
Experimental: FIG. 6B. Heparanase procoagulant activity is attenuated by TFPI and TFPI-2. Same as FIG. 1D, except that recombinant human TFPI and TFPI-2 were added prior to heparanase addition. The mean value±SD of three independent experiments is shown.
FIG. 6C. Heparanase procoagulant activity is abrogated by an anti-Xa derivative.
In order to verify that factor Xa produced in the presence of heparanase is active, thrombin generation, the next step in the coagulation cascade, was examined. The experiment described above (FIG. 1A) was repeated and plasma-derived human prothrombin (222 μM) was added following the addition of factor X. After 15 minutes at 37° C., chromogenic substrate for thrombin was added (1 mM). In the presence of heparanase, thrombine generation was increased (FIG. 1D).

[5] = molecular target: T3, TF-factor VIIa complex (Homo sapiens, UniProt P13726); test: Activated factor X generation assay with purified TF, factor VIIa and factor X (chromogenic substrate); assay type: biochemical; settings: overnight serum-free medium of 293 HEK cells over-expressing heparanase species, compared to mock
T3 construct: purchased American Diagnostica (Stanford, Conn., USA)
Experimental: FIG. 1A. Recombinant human TF, recombinant human factor VIIa, and plasma-derived human factor X were incubated (15 min, 37° C.) in a total assay volume of 125 μL. Chromogenic substrate for the detection of factor Xa was then added (final concentration 1 mM). Recombinant active heparanase GS3 (Hepa) was added prior to the addition of the coagulation factors. The mean value±SD of three independent experiments in shown. […]
FIG. 1C. […] The mean value of two experiments is shown. Note a 2-fold increase in coagulation activity when the medium contained heparanase or its derivatives.
as §1
The factor Xa generation assay was performed as described in the Design and Methods section with increasing doses of recombinant human heparanase (GS3) added prior to the addition of the coagulation factors. […] It should be noted that factor X is composed of two polypeptide chains, a heavy chain with a molecular weight of 38 kDa and a light chain with a molecular weight of 18 kDa joined by a dipeptide Arg-Arg. The factor VIIa-TF complex activates the conversion of factor X to factor Xa by cleaving the heavy chain to a 33 kDa peptide. […] In order to exclude contamination of the heparanase preparation during the routine procedure of purification described in the Design and Methods section, the inventors tested the effect of overnight serum-free without phenol medium of 293 HEK cells over-expressing heparanase and its derivatives compared to mock. The proteins were further purified from the culture medium and analyzed. Similar quantities of proteins were obtained from the culture media.

T1 sequence (P13726 33-295, stated change not applied, one chain of several): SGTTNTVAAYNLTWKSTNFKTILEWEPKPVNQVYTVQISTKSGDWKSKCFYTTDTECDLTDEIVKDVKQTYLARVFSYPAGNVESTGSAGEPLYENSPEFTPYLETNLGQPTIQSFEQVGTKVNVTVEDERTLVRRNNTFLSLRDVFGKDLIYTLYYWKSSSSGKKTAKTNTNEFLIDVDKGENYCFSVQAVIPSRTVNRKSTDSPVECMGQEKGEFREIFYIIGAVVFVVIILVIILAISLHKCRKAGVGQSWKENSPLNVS
T3 sequence (P13726 33-295): as the sequence (P13726 33-295, stated change not applied, one chain of several) above
T3 sequence (P08709 61-212 partner limits assumed): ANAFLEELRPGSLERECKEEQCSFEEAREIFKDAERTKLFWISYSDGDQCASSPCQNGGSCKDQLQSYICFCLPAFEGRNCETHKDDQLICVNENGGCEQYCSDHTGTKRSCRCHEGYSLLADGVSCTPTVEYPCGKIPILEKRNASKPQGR
T3 sequence (P08709 213-466 partner limits assumed): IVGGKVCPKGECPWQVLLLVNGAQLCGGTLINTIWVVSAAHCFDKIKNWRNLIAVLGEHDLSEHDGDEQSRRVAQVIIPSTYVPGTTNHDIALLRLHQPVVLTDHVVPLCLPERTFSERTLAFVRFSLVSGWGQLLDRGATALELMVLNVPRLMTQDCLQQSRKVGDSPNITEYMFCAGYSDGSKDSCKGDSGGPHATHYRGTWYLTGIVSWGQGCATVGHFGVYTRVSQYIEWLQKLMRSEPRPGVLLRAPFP

Molecule: Ac-NNAEICLLPLDYGP [Peptide 7-Ac]
water solubility compared to non-acetylated counterpart [1]: more water soluble than their corresponding non acetylated counterparts

Molecule: AEICLLPLDYGPCR (cysteine pairing not given here) [Peptide 6]
procoagulant effect of heparanase on Xa level [2]: abolished the procoagulant effect of heparanase
procoagulant effect induced by heparanase (Xa level) [2]: inhibited the procoagulant effect induced by heparanase
procoagulant effect of heparanase (TAT level) [3]: completely abolished the procoagulant effect of heparanase

Molecule: Ac-AEICLLPLDYGPCR (cysteine pairing not given here) [Peptide 6-Ac]
procoagulant effect induced by heparanase (Xa level) [2]: inhibited the procoagulant effect induced by heparanase

Molecule: RYYYDRYTQSCRQF [Peptide 12]
procoagulant effect of heparanase on Xa level [2]: abolished the procoagulant effect of heparanase

Molecule: NNAEICLLPLDYGP [Peptide 7]
procoagulant effect of heparanase on Xa level [2]: abolished the procoagulant effect of heparanase
procoagulant effect induced by heparanase (Xa level) [2]: inhibited the procoagulant effect induced by heparanase

procoagulant effect of heparanase (TAT level) [3]: markedly decreased heparanase effect
Molecule: ICLLPLDYGPCRAL (cysteine pairing not given here) [Peptide 5]
procoagulant effect of heparanase on Xa level [2]: abolished the procoagulant effect of heparanase
procoagulant effect induced by heparanase (Xa level) [2]: inhibited the procoagulant effect induced by heparanase

procoagulant effect of heparanase (TAT level) [3]: markedly decreased heparanase effect
Molecule: NANNFYTWEAC [Peptide 21]
procoagulant effect of heparanase on Xa level [2]: abolished the procoagulant effect of heparanase

Molecule: Ac-Ile Cys Leu Leu Pro Leu Asp Tyr Gly Pro Cys Arg Ala Leu (Ac-ICLLPLDYGPCRAL; cysteine pairing not given here) [Peptide 5-Ac]
procoagulant effect induced by heparanase (Xa level) [2]: inhibited the procoagulant effect induced by heparanase

Molecule: TFPI: recombinant human tissue factor pathway inhibitor [reference compound]
heparanase procoagulant activity (thrombin generation) [4]: attenuated the effect; also recorded: mildly attenuated thrombin generation but failed to abolish the procoagulant effect of heparanase

heparanase procoagulant activity (thrombin generation) [4]: abolished the effect of heparanase
Molecule: O=C(NC[C@H]1CN(c2ccc(N3CCOCC3=O)cc2)C(=O)O1)c1ccc(Cl)s1 [Rivaroxaban, reference compound]
heparanase procoagulant activity (thrombin generation) ([4]; listed as rivaroxaban): abolished the procoagulant effect of heparanase

B1: TFPI-2: recombinant human tissue factor pathway inhibitor 2, purchased from R&D (protein, UniProt P48307 23-235, looked up)
Tissue factor pathway …: DAAQEPTGNNAEICLLPLDYGPCRALLLRYYYDRYTQSCRQFLYGGCEGNANNFYTWEACDDACWRIEKVPKVCRLQVSVDDQCEGSTEKYFFNLSSMTCEKFFSGGCHRNRIENRFPDEATCMGFCAPKKIPSFCYSPKDEGLCSANVTRYYFNPRYRTCDAFTYTGCGGNDNNFVSREDCKRACAKALKKKKKMPKLRFASRIRKIRKKQF
heparanase procoagulant activity (thrombin generation) [4]: attenuated the effect; also recorded: mildly attenuated thrombin generation but failed to abolish the procoagulant effect of heparanase
inhibitory potency compared to TFPI in the presence of heparanase ([4]; thrombin generation with heparanase): more effective inhibitor than TFPI; also recorded: more potent than TFPI

increase in factor Xa levels [5]: increased factor Xa levels
B2: double mutant inactive heparanase: heparanase mutated at Glu225 and Glu343, critical for the enzyme catalytic activity (protein)
chain: T2 sequence (Q9Y251 36-543) with E190A, E308A

— patent publication US11448657B2, “Methods and kits for assessing Heparanase procoagulant activity, compositions comprising Heparanase, and methods for the treatment of coagulation-related disorders” (RAMBAM MED-TECH, priority 2011, dated 2022)
